Laboratory results: patent publication US20180346580A1 (INTERVET, published 2018)
“And” between values parts separate entries of the source, which are not always exact repeats. Equal values may be shown once.

B1: canine IL-4 receptor alpha chain (full length) expressed on the surface of CHO DG44 cells (receptor)
chain: VKVLHEPSCFSDYISTSVCQWKMDHPTNCSAELRLSYQLDFMGSENHTCVPENREDSVCVCSMPIDDAVEADVYQLDLWAGQQLLWSGSFQPSKHVKPRTPGNLTVHPNISHTWLLMWTNPYPTENHLHSELTYMVNVSNDNDPEDFKVYNVTYMGPTLRLAASTLKSGASYSARVRAWAQTYNSTWSDWSPSTTWLNYYEPWEQHLPLGVSISCLVILAICLSCYFSIIKIKKGWWDQIPNPAHSPLVAIVIQDSQVSLWGKRSRGQEPAKCPHWKTCLTKLLPCLLEHGLGREEESPKTAKNGPLQGPGKPAWCPVEVSKTILWPESISVVQCVELSEAPVDNEEEEEVEEDKRSLCPSLEGSGGSFQEGREGIVARLTESLFLDLLGGENGGFCPQGLEESCLPPPSGSVGAQMPWAQFPRAGPRAAPEGPEQPRRPESALQASPTQSAGSSAFPEPPPVVTDNPAYRSFGSFLGQSSDPGDGDSDPELADRPGEADPGIPSAPQPPEPPAALQPEPESWEQILRQSVLQHRAAPAPGPGPGSGYREFTCAVKQGSAPDAGGPGFGPSGEAGYKAFCSLLPGGATCPGTSGGEAGSGEGGYKPFQSLTPGCPGAPTPVPVPLFTFGLDTEPPGSPQDSLGAGSSPEHLGVEPAGKEEDSRKTLLAPEQATDPLRDDLASSIVYSALTCHLCGHLKQWHDQEERGKAHIVPSPCCGCCCGDRSSLLLSPLRAPNVLPGGVLLEASLSPASLVPSGVSKEGKSSPFSQPASSSAQSSSQTPKKLAVLSTEPTCMSAS
notes: also called cIL-4Rα; CHO-cIL-4Rα
B2: mouse anti-canine IL-4Rα monoclonal antibody 11H2 (antibody, V domains shown)
VH: DVKLVESGGGLVQPGGSLKLSCAASGFTFSDYYMYWVRQTPEKRLEWVAYVSSGGGSIYYPDTVKGRFTISRDNAKNTLYLQMSRLKSEDTAMYYCARHGSPFGSSRGAWFAYWGQGTLVTVSA
VL: DIQMTQSPASLSASVGETVTITCRASENIYSYLAWYQQKQGKSPQLLVYNAKTLAEGVPSRFSGSGSGTQFSLKINSLQPEDFGNYYCQHYDGFPFTFGGGTKLELK
notes: Hybridoma-derived mouse antibody; also called mAb 11H2
B3: canine IL-4 (R&D system, cat #754-CL/CF), biotinylated (ligand, UniProt O77762 25-132, looked up)
chain: HNFNITIKEIIKMLNILTARNDSCMELTVKDVFTAPKNTSDKEIFCRAATVLRQIYTHNCSNRYLRGLYRNLSSMANKTCSMNEIKKSTLKDFLERLKVIMQKKYYRH
modifications: biotinylated with Lightning-Link Biotin Conjugation Kit Type A
notes: Purchased protein; also called canine interleukin-4; biotinylated canine IL-4

Key:
[1] = molecular target: B3; assay: FACS, biotinylated canine IL-4 on CHO cells expressing canine IL-4Rα
[2] = molecular target: B1; assay: flow cytometry, binding to CHO-cIL-4Rα cells
[3] = molecular target: B1; assay: flow cytometry ligand blockade on CHO-cIL-4Rα cells; competitor biotinylated canine IL-4 at 0.32 µg/mL; one of two separate studies
Description: Procedure: [0247] 1. CHO-DH44-canIL-4Rα cell grown to 2-4 ×10⁶ cells/mL with more than 96% viability. [0248] 2. The cells were spun down, the supernatant discarded, and the cells were suspended in FACS buffer to 2×10⁷ cells/mL. [0249] 3. The cells were distributed into a U-shape 96-well plate, 50 μl each well. [0250] 4. The anti-canine IL-4Rα mAbs in FACS buffer was diluted three-fold on a 96-well plate from top down to bottom well, starting at 50 μg/mL. [0251] 5. 50 μl of each diluted Ab was transferred into the cell plate and then incubated on ice for 30 min. [0252] 6. The cells were washed twice with FACS buffer. [0253] 7. The cells were resuspended into 100 μl of biotinylated canine IL-4 at 0.32 μg/mL in FACS buffer and incubated on ice for 30 min. [0254] 8. The cells were washed twice with FACS buffer. [0255] 9. The cells were responded into 100 μl of R-phycoerythin conjugated Streptavidin (1:1000 dilution) in FACS buffer and incubated on ice for 30 min. [0256] 10. The cells were washed twice with FACS buffer. [0257] 11. The cells were brought up to 300 μl in FACS buffer. [0258] 12. 10,000 cells were read for each sample by BD Accuri-C6. [0259] 13. The resulting readout were analyzed by FlowJo to get the mean fluorescent intensity (MFI).

[4] = molecular target: B1; assay: flow cytometry, cell-based CHO-cIL-4Rα binding assay

Binder: B1
- binding result [1]: binds

Binder: B2
- EC50 [2]: 1.2 nM
- IC50 [3]: 1.7 nM and 1 nM

Binder: B3
- EC50 [4]: 25 nM
